Data: IntAct's records for PubMed 25064736

B1: Nibrin (Homo sapiens), O60934 (parent)
chain: MWKLLPAAGPAGGEPYRLLTGVEYVVGRKNCAILIENDQSISRNHAVLTANFSVTNLSQTDEIPVLTLKDNSKYGTFVNEEKMQNGFSRTLKSGDGITFGVFGSKFRIEYEPLVACSSCLDVSGKTALNQAILQLGGFTVNNWTEECTHLVMVSVKVTIKTICALICGRPIVKPEYFTEFLKAVESKKQPPQIESFYPPLDEPSIGSKNVDLSGRQERKQIFKGKTFIFLNAKQHKKLSSAVVFGGGEARLITEENEEEHNFFLAPGTCVVDTGITNSQTLIPDCQKKWIQSIMDMLQRQGLRPIPEAEIGLAVIFMTTKNYCDPQGHPSTGLKTTTPGPSLSQGVSVDEKLMPSAPVNTTTYVADTESEQADTWDLSERPKEIKVSKMEQKFRMLSQDAPTVKESCKTSSNNNSMVSNTLAKMRIPNYQLSPTKLPSINKSKDRASQQQQTNSIRNYFQPSTKKRERDEENQEMSSCKSARIETSCSLLEQTQPATPSLWKNKEQHLSENEPVDTNSDNNLFTDTDLKSIVKNSASKSHAAEKLRSNKKREMDDVAIEDEVLEQLFKDTKPELEIDVKVQKQEEDVNVRKRPRMDIETNDTFSDEAVPESSKISQENEIGKKRELKEDSLWSAKEISNNDKLQDDSEMLPKKLLLTEFRSLVIKNSTSRNPSGINDDYGQLKNFKKFKKVTYPGAGKLPHIIGGSDLIAHHARKNTELEEWLRQEMEVQNQHAKEESLADDLFRYNPYLKRRR
partner: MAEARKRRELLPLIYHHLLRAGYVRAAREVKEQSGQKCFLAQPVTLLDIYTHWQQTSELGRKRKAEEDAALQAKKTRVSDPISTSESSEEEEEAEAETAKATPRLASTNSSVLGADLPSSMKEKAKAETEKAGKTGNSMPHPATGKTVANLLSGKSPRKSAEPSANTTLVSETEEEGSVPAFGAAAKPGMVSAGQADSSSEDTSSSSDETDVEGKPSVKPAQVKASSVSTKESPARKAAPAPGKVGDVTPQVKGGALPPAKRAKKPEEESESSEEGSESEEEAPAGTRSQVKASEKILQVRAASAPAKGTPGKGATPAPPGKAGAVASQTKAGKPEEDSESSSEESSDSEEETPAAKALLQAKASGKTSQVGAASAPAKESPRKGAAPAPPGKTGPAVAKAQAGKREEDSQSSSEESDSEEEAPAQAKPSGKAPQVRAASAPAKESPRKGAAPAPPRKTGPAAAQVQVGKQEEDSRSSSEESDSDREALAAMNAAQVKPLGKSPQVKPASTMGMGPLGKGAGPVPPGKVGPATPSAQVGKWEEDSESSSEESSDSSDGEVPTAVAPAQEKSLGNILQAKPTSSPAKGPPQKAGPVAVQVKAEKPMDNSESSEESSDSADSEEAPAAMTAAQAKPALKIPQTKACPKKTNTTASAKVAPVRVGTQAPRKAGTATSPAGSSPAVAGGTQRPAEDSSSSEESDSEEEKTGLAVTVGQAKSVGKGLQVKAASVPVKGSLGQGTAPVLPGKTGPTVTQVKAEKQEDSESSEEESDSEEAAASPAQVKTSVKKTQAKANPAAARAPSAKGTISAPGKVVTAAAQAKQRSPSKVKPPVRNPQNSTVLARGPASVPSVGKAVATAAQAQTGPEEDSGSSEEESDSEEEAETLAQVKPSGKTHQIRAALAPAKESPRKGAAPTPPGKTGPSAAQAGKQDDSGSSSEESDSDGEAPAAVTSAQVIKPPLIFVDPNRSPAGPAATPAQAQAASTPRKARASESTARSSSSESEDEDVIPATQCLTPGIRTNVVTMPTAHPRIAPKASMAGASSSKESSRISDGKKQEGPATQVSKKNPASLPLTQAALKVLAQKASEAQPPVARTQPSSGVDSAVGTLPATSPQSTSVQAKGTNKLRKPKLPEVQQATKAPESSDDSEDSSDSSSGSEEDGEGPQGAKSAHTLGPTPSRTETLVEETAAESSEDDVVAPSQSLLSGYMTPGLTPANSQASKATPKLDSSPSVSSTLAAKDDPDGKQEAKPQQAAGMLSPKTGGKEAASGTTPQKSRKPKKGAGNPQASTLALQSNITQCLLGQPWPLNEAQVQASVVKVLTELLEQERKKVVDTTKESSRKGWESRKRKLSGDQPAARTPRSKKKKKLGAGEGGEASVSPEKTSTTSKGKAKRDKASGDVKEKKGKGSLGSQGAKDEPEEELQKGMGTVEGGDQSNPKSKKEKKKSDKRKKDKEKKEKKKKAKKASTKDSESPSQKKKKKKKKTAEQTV
B2: Treacle protein (Homo sapiens), Q13428 (parent)
chain: B1 partner

Variants of: B1
Conditions: with tcof_human TCOF1, Q13428

Variant	effect of a mutation on the interaction
R28A	disrupting interaction strength

Variants of: B1
Conditions: with tcof_human TCOF1, Q13428
Remark: another data set of the same source

Variant	effect of a mutation on the interaction
R28A;K160M	disrupting interaction strength

Variants of: B2
Conditions: with nbn_human NBN

Variant	effect of a mutation on the interaction
T210A	disrupting interaction strength
